Data published in publication PMC3997080.

Target: αB-crystallin deletion mutant lacking residues 54FLRAPSWF61 (αBΔ54–61) (human) (UniProt P02511)
Experiment: SEC-MALS

stoichiometry N (subunits/oligomer): 20
Substance: αB-crystallin deletion mutant lacking residues 54FLRAPSWF61 (αBΔ54–61) (from UniProt P02511 1-175) (natural protein)
